Patent publication US12351834B2, “Compositions and methods for the treatment of ornithine transcarbamylase deficiency” (Arcturus Therapeutics, Inc., priority 2020, dated 2025)

Assays:
Assay type in all cases: in vivo, mouse
[1] = tested on: Spf/ash mice; assay: Urinary orotate levels in Spf/ash mice; conditions: 3 mg/kg IV, lipid-formulated
Procedure: Spf/ash mice received an IV injection with either PBS or lipid-formulated OTC-mRNA construct 1799.7 (5MeOU chemistry) at three different doses: 0.3 mg/kg, 1 mg/kg and 3 mg/kg. Urinary orotate levels were determined in untreated wild-type (WT) and both untreated and treated Spf/ash mice. A urinary orotate time course was performed in Spf/ash and WT mice, and urinary orotate levels were measured at each timepoint. The results can be seen in FIG. 12. Urinary orotate was normalized to creatinine, which is represented in the graph on the y-axis throughout the time course and served as a proof-of-concept of functional restoration of OTC activity post-injection.
Spf/ash mice received an IV injection with either PBS or lipid-formulated (as described in Example 1) OTC-mRNA at 1 mg/kg and 3 mg/kg. WT mice were included as an internal control. Urinary orotate levels were measured at 0, 1, 3, 7 and 14 days, and levels were normalized to creatinine (FIG. 16).

[2] = tested on: Spf/ash mice; assay: PK/PD analysis of human OTC expression and urinary orotate in Spf/ash mice; conditions: 1 mg/kg and 3 mg/kg IV, 96 hours post dose
Procedure: Spf/ash mice received an IV injection with either PBS or certain lipid-formulated OTC-mRNAs from Table 5 at 1 mg/kg and 3 mg/kg using two different uridine chemistries (N1MPU and 5MeOU). WT mice were used as internal controls. Human-specific OTC levels were measured by MRM, and urinary orotate was determined in each sample and normalized to creatinine.

[3] = tested on: Spf/ash mice; assay: Survival of Spf/ash mice on a high protein diet; conditions: 0.3, 1 and 3 mg/kg IV on days 0, 7, 14, 21, 28
Procedure: Spf/ash mice received an IV injection with either PBS or lipid-formulated OTC-mRNA (1799.7) at three doses: 0.3 mg/kg, 1 mg/kg and 3 mg/kg. Mice were fed a high protein diet from day 0 to the end of the study. Treated animals were injected intravenously on days 0, 7, 14, 21 and 28 (indicated by the arrows in the chart in FIG. 17). Survival rates were determined every week. The plot in FIG. 17 summarizes the entire study timeline and the survival rates observed for the different groups.
The pharmacology of the OTC mRNA lipid formulations was investigated in studies that elucidated their efficacy and potential mechanism of action in a series of studies in the hemizygous male Spf/ash mouse model. […] The hypomorphic Spf/ash mouse shares similar biochemical features with OTCD patients, including elevated concentrations of urinary orotic acid (orotate), blood glutamine, and decreased concentrations of blood citrulline and arginine. The hemizygous male Spf/ash mice used in the pharmacology studies were derived by crossing B6EiC3Sn a/A-Otcspfash/J Het mice x B6EiC3SnF1/J mice as homozygous mice are not viable. […]
To study the effect of different ionizable cationic lipids on survival rate, Spf/ash mice received an IV injection with either PBS or one of three different lipid-formulated OTC-mRNA (1799.7) compositions. […] Survival rates were determined daily. […]

B1: 1799.7 (nucleic acid)
chain: ATGCTGTTCAACCTGCGCATCCTGCTGAACAACGCCGCCTTCCGCAACGGCCACAACTTCATGGTGCGCAACTTCCGCTGCGGCCAGCCCCTGCAGAACAAGGTGCAGCTGAAGGGCCGCGACCTGCTGACCCTGAAGAACTTCACCGGCGAGGAGATCAAGTACATGCTGTGGCTGAGCGCCGACCTGAAGTTCCGCATCAAGCAGAAGGGCGAGTACCTGCCCCTGCTGCAGGGCAAGAGCCTGGGCATGATCTTCGAGAAGCGCAGCACCCGCACCCGCCTGAGCACCGAGACAGGCTTCGCCCTGCTGGGCGGCCACCCCTGCTTCCTGACCACCCAGGACATCCACCTGGGCGTGAACGAGAGCCTGACCGACACCGCCCGCGTGCTGAGCAGCATGGCCGACGCCGTGCTGGCCCGCGTGTACAAGCAGAGCGACCTGGACACCCTGGCCAAGGAGGCCAGCATCCCCATCATCAACGGCCTGAGCGACCTGTACCACCCCATCCAGATCCTGGCCGACTACCTGACCCTGCAGGAGCACTACAGCAGCCTGAAGGGCCTGACCCTGAGCTGGATCGGCGACGGCAACAACATCCTGCACAGCATCATGATGAGCGCCGCCAAGTTCGGCATGCACCTGCAGGCCGCCACCCCCAAGGGCTACGAGCCCGACGCCAGCGTGACCAAGCTGGCCGAGCAGTACGCCAAGGAGAACGGCACCAAGCTGCTGCTGACCAACGACCCCCTGGAGGCCGCCCACGGCGGCAACGTGCTGATCACCGACACCTGGATCAGCATGGGCCAGGAGGAGGAGAAGAAGAAGCGCCTGCAGGCCTTCCAGGGCTACCAGGTGACCATGAAGACCGCCAAGGTGGCCGCCAGCGACTGGACCTTCCTGCACTGCCTGCCCCGCAAGCCCGAGGAGGTGGACGACGAGGTGTTCTACAGCCCCCGCAGCCTGGTGTTCCCCGAGGCCGAGAACCGCAAGTGGACCATCATGGCCGTGATGGTGAGCCTGCTGACCGACTACAGCCCCCAGCTGCAGAAGCCCAAGTTCTGA
modifications: 100% 5-methoxyuridine; lipid formulation
urinary orotate levels in treated Spf/ash mice vs WT mice [1]: comparable to urinary orotate levels in WT mice | duration of sustainable reduction of urinary orotate levels ([1]; normalized to creatinine): up to 14 days | PK/PD correlation between hOTC protein expression and reduction of urinary orotate [2]: high PK/PD correlation | dose dependence of survival rate [3]: dose-dependent | survival during hyperammonemic crisis vs PBS [3]: greater survival
